Target: Ubiquitin (Ub)
Experiment: biotin-streptavidin pull-down and mass spectrometry
Conditions: N2A cells, triplicate experiments, S0: 1.5, FDR: 0.01, read off a plot

other: Welch's t-test difference (logarithmized ratio of relative protein intensities, WT vs mutant): 4.1
Substance: bioGFP-tagged OPTN wild-type (from UniProt Q96CV9) E478G

Reference: paper PMC4947123
